Laboratory results reported in paper PMC12084609, “Structural insights into small-molecule agonist recognition and activation of complement receptor C3aR” (The EMBO Journal, 2025).
Where a chain is given by its changes, count along the chain named. Where “and” joins values, the source holds several entries; their conditions need not be identical. Identical values can stand only once.

Assays:
Assay type in all cases: cell-based
C3aR D417^7.35A = target: T1, C3aR D417^7.35A (Homo sapiens, UniProt Q16581, D417A); assay: GloSensor-based cAMP assay, C3aR mutant D417A; details: D4177.35A, single replicates
T1 construct: expressed in transfected cells; host or cells: HEK293T
T1 sequence (Q16581 1-482 D417A): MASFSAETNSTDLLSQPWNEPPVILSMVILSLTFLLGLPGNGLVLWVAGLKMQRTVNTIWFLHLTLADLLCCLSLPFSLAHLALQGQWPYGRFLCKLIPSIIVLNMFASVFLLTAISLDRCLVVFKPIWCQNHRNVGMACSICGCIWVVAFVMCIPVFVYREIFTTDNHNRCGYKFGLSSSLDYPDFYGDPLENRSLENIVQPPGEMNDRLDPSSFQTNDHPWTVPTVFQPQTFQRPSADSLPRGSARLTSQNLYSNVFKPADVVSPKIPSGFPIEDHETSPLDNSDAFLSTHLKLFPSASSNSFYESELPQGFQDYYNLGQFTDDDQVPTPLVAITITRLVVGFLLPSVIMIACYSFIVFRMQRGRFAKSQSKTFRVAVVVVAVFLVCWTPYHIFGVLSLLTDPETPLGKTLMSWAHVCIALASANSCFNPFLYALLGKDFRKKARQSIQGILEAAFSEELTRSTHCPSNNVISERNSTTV
Protocol: (§1) HEK293T cells were seeded on 6-well plates (NEST) and transfected with pGlosensor™-22F plasmids (Promega) and pcDNA3.1 plasmids encoding C3aR or its mutants an with N-terminal FLAG tag. After 48 h, cells were detached with Accutase solution (Sigma-Aldrich) and washed with PBS, and resuspended in assay buffer (CO2-independent medium with 0.5 mg mL^−1D-luciferin). 100,000–200,000 cells were seeded on 96-well white bottom plates (SPL) and incubated at 37 °C for 45 min followed by 45 min incubation at room temperature. After 90 min of incubation, basal luminescence signals were recorded. In total, 25 μl of test ligand with various concentrations and 1 μM Forskolin (Sigma-Aldrich) were treated to the cells and luminescence signals were measured by Tristar 2 LB 942 multimode reader (Berthold). […] Relative luminescence unit (%) was calculated with the signal of wells treated with vehicle as 0% and the signal of wells treated with 1 μM Forskolin as 100% (DiRaddo et al, [2014]). Nonlinear regression was performed using a three-parameter logistic equation.

C3aR H81^2.63A = target: T2, C3aR H81^2.63A (Homo sapiens, UniProt Q16581, H81A); assay: GloSensor-based cAMP assay, C3aR mutant H81A; details: for cAMP response (% Forskolin): H812.63A, single replicates
T2 construct: expressed in transfected cells; host or cells: HEK293T
T2 sequence (Q16581 1-482 H81A): T1 sequence (Q16581 1-482 D417A) with H81A, A417D
Protocol: as §1

C3aR I98^3.28A = target: T3, C3aR I98^3.28A (Homo sapiens, UniProt Q16581, I98A); assay: GloSensor-based cAMP assay, C3aR mutant I98A; details: for cAMP response (% Forskolin): I983.28A, single replicates
T3 construct: expressed in transfected cells; host or cells: HEK293T
T3 sequence (Q16581 1-482 I98A): T1 sequence (Q16581 1-482 D417A) with I98A, A417D
Protocol: as §1

C3aR = C3aR (Homo sapiens, UniProt Q16581); assay: Gi recruitment BRET assay (C3aR-eYFP / Gαi-Rluc8, HEK293T); details: for ΔBRET (ligand-vehicle): individual replicates
C3aR, sequence (Q16581 whole entry): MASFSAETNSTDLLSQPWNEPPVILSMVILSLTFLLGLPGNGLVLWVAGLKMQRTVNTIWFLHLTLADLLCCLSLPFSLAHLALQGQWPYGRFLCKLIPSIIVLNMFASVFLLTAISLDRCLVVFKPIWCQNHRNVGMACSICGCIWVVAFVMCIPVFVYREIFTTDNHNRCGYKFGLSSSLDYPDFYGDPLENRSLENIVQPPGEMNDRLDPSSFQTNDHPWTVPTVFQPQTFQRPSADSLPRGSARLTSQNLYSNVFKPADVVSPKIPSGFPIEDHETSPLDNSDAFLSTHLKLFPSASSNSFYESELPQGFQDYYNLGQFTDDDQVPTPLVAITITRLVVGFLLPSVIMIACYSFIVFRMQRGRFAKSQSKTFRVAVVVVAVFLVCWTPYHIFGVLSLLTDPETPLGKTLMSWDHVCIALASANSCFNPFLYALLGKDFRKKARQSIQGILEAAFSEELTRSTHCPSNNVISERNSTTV
C3aR, sequence (P63096 2-354 partner limits assumed): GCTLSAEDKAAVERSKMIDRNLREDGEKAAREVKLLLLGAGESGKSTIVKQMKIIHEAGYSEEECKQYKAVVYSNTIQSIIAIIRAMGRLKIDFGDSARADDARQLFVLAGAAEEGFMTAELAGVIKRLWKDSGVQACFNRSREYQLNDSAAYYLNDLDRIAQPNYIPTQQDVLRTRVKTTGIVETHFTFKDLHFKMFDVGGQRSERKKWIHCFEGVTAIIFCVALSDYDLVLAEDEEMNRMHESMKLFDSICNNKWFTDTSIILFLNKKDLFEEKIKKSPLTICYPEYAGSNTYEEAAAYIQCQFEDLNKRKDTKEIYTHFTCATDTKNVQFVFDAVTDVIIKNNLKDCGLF
C3aR, sequence (P62873 2-340 partner limits assumed): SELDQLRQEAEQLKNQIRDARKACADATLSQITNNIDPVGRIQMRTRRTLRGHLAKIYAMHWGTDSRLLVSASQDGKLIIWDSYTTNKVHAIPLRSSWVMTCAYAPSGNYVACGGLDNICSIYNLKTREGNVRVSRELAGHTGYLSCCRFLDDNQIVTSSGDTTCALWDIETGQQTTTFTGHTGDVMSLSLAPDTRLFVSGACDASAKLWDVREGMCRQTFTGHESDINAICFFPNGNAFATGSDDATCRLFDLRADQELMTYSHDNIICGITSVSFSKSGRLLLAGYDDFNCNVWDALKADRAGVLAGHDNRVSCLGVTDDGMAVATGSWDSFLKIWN
C3aR, sequence (P59768 2-68 partner limits assumed): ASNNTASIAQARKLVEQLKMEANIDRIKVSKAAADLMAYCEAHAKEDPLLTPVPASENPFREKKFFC
Protocol: HEK293T cells were seeded on 6-well plates (NEST) and transfected with pcDNA3.1 plasmids encoding C3aR-eYFP, Gαi-Rluc8, Gβ1, and Gγ2 with a ratio of 5:1:1:1. After 48 h, cells were harvested and resuspended with in PBS. Cells were treated with test ligand with various concentrations and seeded on 96-well white bottom plates (SPL). After 3 min incubation at 37 °C, coelenterazine h (Nanolight) was added with a final concentration of 10 μM. Luminescence and fluorescence were measured using a Tristar 2 LB 942 multimode reader (Berthold).

[1] = Dunnett's multiple comparisons test, WT minus mutant

C3a: anaphylatoxin C3a, natural peptide ligand of C3aR (a 77-amino acid peptide), Sigma-Aldrich
cAMP response (% Forskolin) (C3aR D417^7.35A; Log[C3a (M)] -7): 91.99 % Forskolin and 99.64 % Forskolin and 84.06 % Forskolin
cAMP response (% Forskolin) (C3aR D417^7.35A; Log[C3a (M)] -8): 90.00 % Forskolin and 93.47 % Forskolin and 96.64 % Forskolin
cAMP response (% Forskolin) (C3aR D417^7.35A; Log[C3a (M)] -9): 98.82 % Forskolin and 114.21 % Forskolin and 106.52 % Forskolin
cAMP response (% Forskolin) (C3aR D417^7.35A; Log[C3a (M)] -10): 109.81 % Forskolin and 104.73 % Forskolin and 103.88 % Forskolin
cAMP response (% Forskolin) (C3aR D417^7.35A; Log[C3a (M)] -11): 98.54 % Forskolin and 110.53 % Forskolin and 108.95 % Forskolin
cAMP response (% Forskolin) (C3aR D417^7.35A; Log[C3a (M)] -12): 97.82 % Forskolin and 107.45 % Forskolin and 101.02 % Forskolin
Mean Diff. of pIC50, WT vs. H81A (C3aR H81^2.63A; [1]): 0.390
ΔpIC50 ± SE of Diff. (C3aR H81^2.63A; H81^2.63A relative to WT C3aR): -0.39 ± 0.05
IC50 (C3aR H81^2.63A; H81^2.63A, dose-response plot, read-out: IC50): 7.45 nM
pIC50 (Replicate) (C3aR H81^2.63A; H81^2.63A, individual replicates): 8.23 and 8.03 and 8.24 and 8.26 and 7.82 and 8.16 and 8.00
pIC50 ± SEM (Mean) (C3aR H81^2.63A; H81^2.63A, mean of independent experiments): 8.11
cAMP response (% Forskolin) (C3aR H81^2.63A; Log[C3a (M)] -7): 16.97 % Forskolin and 18.16 % Forskolin and 16.81 % Forskolin and 12.45 % Forskolin and 16.49 % Forskolin and 12.75 % Forskolin and 10.89 % Forskolin
cAMP response (% Forskolin) (C3aR H81^2.63A; Log[C3a (M)] -8): 37.38 % Forskolin and 51.57 % Forskolin and 36.98 % Forskolin and 30.38 % Forskolin and 58.58 % Forskolin and 40.19 % Forskolin and 48.13 % Forskolin
cAMP response (% Forskolin) (C3aR H81^2.63A; Log[C3a (M)] -9): 95.75 % Forskolin and 95.02 % Forskolin and 98.54 % Forskolin and 105.34 % Forskolin and 92.35 % Forskolin and 92.22 % Forskolin and 94.48 % Forskolin
cAMP response (% Forskolin) (C3aR H81^2.63A; Log[C3a (M)] -10): 97.40 % Forskolin and 98.52 % Forskolin and 99.76 % Forskolin and 98.68 % Forskolin and 88.34 % Forskolin and 99.56 % Forskolin and 95.62 % Forskolin
cAMP response (% Forskolin) (C3aR H81^2.63A; Log[C3a (M)] -11): 96.99 % Forskolin and 98.64 % Forskolin and 99.98 % Forskolin and 102.79 % Forskolin and 93.58 % Forskolin and 91.17 % Forskolin and 97.12 % Forskolin
cAMP response (% Forskolin) (C3aR H81^2.63A; Log[C3a (M)] -12): 95.00 % Forskolin and 97.54 % Forskolin and 97.75 % Forskolin and 103.25 % Forskolin and 100.37 % Forskolin and 97.05 % Forskolin and 96.06 % Forskolin
Mean Diff. of pIC50, WT vs. I98A (C3aR I98^3.28A; [1]): 0.113
ΔpIC50 ± SE of Diff. (C3aR I98^3.28A; I98^3.28A relative to WT C3aR): -0.11 ± 0.02
IC50 (C3aR I98^3.28A; I98^3.28A, dose-response plot, read-out: IC50): 4.07 nM
pIC50 (Replicate) (C3aR I98^3.28A; I98^3.28A, individual replicates): 8.38 (2×) and 8.42 and 8.40 and 8.08 and 8.54 and 8.47
pIC50 ± SEM (Mean) (C3aR I98^3.28A; I98^3.28A, mean of independent experiments): 8.38 ± 0.05 and 8.38
cAMP response (% Forskolin) (C3aR I98^3.28A; Log[C3a (M)] -7): 12.31 % Forskolin and 10.90 % Forskolin and 9.84 % Forskolin and 8.89 % Forskolin and 11.38 % Forskolin and 5.37 % Forskolin and 7.43 % Forskolin
cAMP response (% Forskolin) (C3aR I98^3.28A; Log[C3a (M)] -8): 27.29 % Forskolin and 21.82 % Forskolin and 20.14 % Forskolin and 14.26 % Forskolin and 42.67 % Forskolin and 12.53 % Forskolin and 15.24 % Forskolin
cAMP response (% Forskolin) (C3aR I98^3.28A; Log[C3a (M)] -9): 88.79 % Forskolin and 95.53 % Forskolin and 90.20 % Forskolin and 95.03 % Forskolin and 96.77 % Forskolin and 78.73 % Forskolin and 85.71 % Forskolin
cAMP response (% Forskolin) (C3aR I98^3.28A; Log[C3a (M)] -10): 99.83 % Forskolin and 101.03 % Forskolin and 99.65 % Forskolin and 94.56 % Forskolin and 95.76 % Forskolin and 97.03 % Forskolin and 93.13 % Forskolin
cAMP response (% Forskolin) (C3aR I98^3.28A; Log[C3a (M)] -11): 97.32 % Forskolin and 101.48 % Forskolin and 99.97 % Forskolin and 96.12 % Forskolin and 97.86 % Forskolin and 93.68 % Forskolin and 92.51 % Forskolin
cAMP response (% Forskolin) (C3aR I98^3.28A; Log[C3a (M)] -12): 95.26 % Forskolin and 98.35 % Forskolin and 96.71 % Forskolin and 98.06 % Forskolin and 93.96 % Forskolin and 97.55 % Forskolin and 101.79 % Forskolin
pEC50 Value (C3aR; Figure EV1A numerical data, curve fit): 8.52
ΔBRET (ligand-vehicle) (C3aR; Log[ligand (M)] -7): 0.032 and 0.030 and 0.024 and 0.026
ΔBRET (ligand-vehicle) (C3aR; Log[ligand (M)] -8): 0.029 and 0.025 and 0.020 and 0.022
ΔBRET (ligand-vehicle) (C3aR; Log[ligand (M)] -9): 0.010 and 0.009 and 0.006 and 0.007
ΔBRET (ligand-vehicle) (C3aR; Log[ligand (M)] -10): 0.00235 and 0.00134 and 0.00248 and 0.003
ΔBRET (ligand-vehicle) (C3aR; Log[ligand (M)] -11): 0.000317 and 0.00116 and 0.00278 and 0.00544
ΔBRET (ligand-vehicle) (C3aR; Log[ligand (M)] -12): 0.000368 and 0.000727 and 0.00354 and 0.006
Span Value (C3aR; span of ΔBRET curve, Figure EV1A numerical data): 0.027
